The values below are quoted from earlier work in publication PMC6719960.

This series addresses claudin-4 (UniProt O14493).
Sequence of UniProt O14493 (O14493 whole entry): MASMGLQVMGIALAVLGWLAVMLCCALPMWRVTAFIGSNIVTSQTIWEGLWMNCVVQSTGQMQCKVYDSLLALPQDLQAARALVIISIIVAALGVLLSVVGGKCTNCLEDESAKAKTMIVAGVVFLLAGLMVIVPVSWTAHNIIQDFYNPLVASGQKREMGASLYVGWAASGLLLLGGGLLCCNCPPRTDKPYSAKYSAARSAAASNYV

One may read the Kd as the constant that tells how readily two partners part at equilibrium. Turning to “C-CPE C-terminal fragment (from UniProt P01558)”, the Kd was 0.5 nM.
